Assay results from patent US20230322953A1 (HARBOUR BIOMED SHANGHAI, published 2023).
Substitutions are numbered along the chain they refer to.

T1: biotinylated human BCMA-Fc, Avitag recombinant protein (ACRO Biosystems, #BC7-H82F0) (human, UniProt Q02223 1-54, biotinylated)
T1 construct: extracellular domain; Bought protein; also called human BCMA protein; recombinant human BCMA-ECD-Fc; not shown: Fc of the bought fusion protein; Avitag
T1 sequence (looked up): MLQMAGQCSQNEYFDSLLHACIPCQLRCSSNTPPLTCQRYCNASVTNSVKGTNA

T2: human BCMA (human, UniProt Q02223 1-184)
T2 construct: whole, on cells; also called hBCMA; TNFRSF17
T2 sequence (looked up): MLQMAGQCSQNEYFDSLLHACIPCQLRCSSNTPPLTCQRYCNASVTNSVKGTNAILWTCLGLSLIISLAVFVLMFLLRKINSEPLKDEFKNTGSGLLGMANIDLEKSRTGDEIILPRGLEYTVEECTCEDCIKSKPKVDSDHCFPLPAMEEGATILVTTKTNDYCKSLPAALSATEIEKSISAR

T3: human BCMA (human, UniProt Q02223 1-184)
T3 construct: whole, on cells; the cell line is named under assay; also called TNFRSF17; CD269
T3 sequence (looked up): T2 sequence (looked up)

B1: PR002301 (bispecific antibody, human IgG1, lambda, L234A L235A)
light: QAVVTQEPSLTVSPGGTVTLTCRSSTGAVTTSNYANWVQQKPGQAPRGLIGGTNKRAPWTPARFSGSLLGDKAALTLLGAQPEDEAEYFCALWYSNLWVFGGGTKLTVLGQPKAAPSVTLFPPSSEELQANKATLVCLISDFYPGAVTVAWKADSSPVKAGVETTTPSKQSNNKYAASSYLSLTPEQWKSHRSYSCQVTHEGSTVEKTVAPTECS
heavy: EVQLLESGGGLVQPGGSLRLSCAASGFTFSTYAMNWVRQAPGKGLEWVSRIRSKYNNYATYYADSVKDRFTISRDDSKSTLYLQMNSLRAEDTAVYYCVRHGNFGNSYVSWFAYWGQGTLVTVSSASTKGPSVFPLAPSSKSTSGGTAALGCLVKDYFPEPVTVSWNSGALTSGVHTFPAVLQSSGLYSLSSVVTVPSSSLGTQTYICNVNHKPSNTKVDKKVEPKSCDKTHTCPPCPAPEAAGGPSVFLFPPKPKDTLMISRTPEVTCVVVDVSHEDPEVKFNWYVDGVEVHNAKTKPREEQYNSTYRVVSVLTVLHQDWLNGKEYKCKVSNKALGAPIEKTISKAKGQPREPQVYTLPPCREEMTKNQVSLWCLVKGFYPSDIAVEWESNGQPENNYKTTPPVLDSDGSFFLYSKLTVDKSRWQQGNVFSCSVMHEALHNHYTQKSLSLSPGK
chain: EVQLLESGGGLVQPGGSLRLSCAASGFTFSSYAMIWVRQAPGKGLEWVSGISESGGSTYYADSVKGRFTISRDNSKNTLYLQMNSLRAEDTAVYFCVKDLDDILTGYYKDYWGQGTLVTVSSRTGGGGSGGGGSGGGGSGGGGSGGGGSKLEVQLLESGGGLVQPGGSLRLSCAASGFTFSSYAMIWVRQAPGKGLEWVSGISESGGSTYYADSVKGRFTISRDNSKNTLYLQMNSLRAEDTAVYFCVKDLDDILTGYYKDYWGQGTLVTVSSASEPKSSDKTHTCPPCPAPEAAGGPSVFLFPPKPKDTLMISRTPEVTCVVVDVSHEDPEVKFNWYVDGVEVHNAKTKPREEQYNSTYRVVSVLTVLHQDWLNGKEYKCKVSNKALGAPIEKTISKAKGQPREPQVCTLPPSREEMTKNQVSLSCAVKGFYPSDIAVEWESNGQPENNYKTTPPVLDSDGSFFLVSKLTVDKSRWQQGNVFSCSVMHEALHNHYTQKSLSLSPGK
B2: PR002310 (bispecific antibody, human IgG1, lambda, L234A L235A)
light: B1 light
heavy: B1 heavy
chain: EVQLVETGGGLIQPGGSLRLSCAASGFTVSDNYMTWVRQAPGKGLEWVSVIFSGGNTYYADSVKGRFTISRDNAKNTLYLQMNSLRAEDTALYYCARRNYDDTRGTDVFDIWGQGTMVTVSSRTGGGGSGGGGSGGGGSGGGGSGGGGSKLEVQLVETGGGLIQPGGSLRLSCAASGFTVSDNYMTWVRQAPGKGLEWVSVIFSGGNTYYADSVKGRFTISRDNAKNTLYLQMNSLRAEDTALYYCARRNYDDTRGTDVFDIWGQGTMVTVSSASEPKSSDKTHTCPPCPAPEAAGGPSVFLFPPKPKDTLMISRTPEVTCVVVDVSHEDPEVKFNWYVDGVEVHNAKTKPREEQYNSTYRVVSVLTVLHQDWLNGKEYKCKVSNKALGAPIEKTISKAKGQPREPQVCTLPPSREEMTKNQVSLSCAVKGFYPSDIAVEWESNGQPENNYKTTPPVLDSDGSFFLVSKLTVDKSRWQQGNVFSCSVMHEALHNHYTQKSLSLSPGK
B3: PR002308 (bispecific antibody, human IgG1, lambda, L234A L235A)
light: B1 light
heavy: B1 heavy
chain: EVQLVETGGGLIQPGGSLRLSCAASGFTVSDNYMTWVRQAPGKGLEWVSVIFSGGNTYYADSVKGRFTISRDNAKNTLYLQMNSLRAEDTALYYCARRNYDDTRGTDVFDIWGQGTMVTVSSRTGGGGSKLEVQLVETGGGLIQPGGSLRLSCAASGFTVSDNYMTWVRQAPGKGLEWVSVIFSGGNTYYADSVKGRFTISRDNAKNTLYLQMNSLRAEDTALYYCARRNYDDTRGTDVFDIWGQGTMVTVSSASEPKSSDKTHTCPPCPAPEAAGGPSVFLFPPKPKDTLMISRTPEVTCVVVDVSHEDPEVKFNWYVDGVEVHNAKTKPREEQYNSTYRVVSVLTVLHQDWLNGKEYKCKVSNKALGAPIEKTISKAKGQPREPQVCTLPPSREEMTKNQVSLSCAVKGFYPSDIAVEWESNGQPENNYKTTPPVLDSDGSFFLVSKLTVDKSRWQQGNVFSCSVMHEALHNHYTQKSLSLSPGK
B4: PR001046 VH single-domain molecule (original molecule) (VHH)
VHH: EVQLVETGGGLIQPGGSLRLSCAASGFTVSDNYMTWVRQAPGKGLEWVSVIFSGGNTYYADSVKGRFTISRDNAKNTLYLQMNSLRAEDTALYYCARRNYDDTRGTDVFDIWGQGTMVTVSS
notes: not the HCAb form; not shown: Flag and His tags
B5: PR004569, PR001046 VH-derived single-domain variant 1046-R2-5H2 (VHH)
VHH: B4 VHH with N32S, N56R, A60S, D102Q
notes: Tested as VH single domain with Flag and His tags; not shown: Flag and His tags
B6: PR004562, PR001046 VH-derived single-domain variant 1046-R2-10H5 (VHH)
VHH: B4 VHH with N32S, N56K, A60S, D102Q, R104L
notes: as for B5
B7: PR004563, PR001046 VH-derived single-domain variant 1046-R2-1A1 (VHH)
VHH: B4 VHH with S30Y, N56K, Y59V, D102Q
notes: as for B5
B8: PR004568, PR001046 VH-derived single-domain variant 1046-R2-5H1 (VHH)
VHH: B4 VHH with N32A, N56R, Y59V
notes: as for B5
B9: PR004565, PR001046 VH-derived single-domain variant 1046-R2-2G4 (VHH)
VHH: B4 VHH with N32A, Y59V, A60S, D102Q, R104I
notes: as for B5
B10: PR004567, PR001046 VH-derived single-domain variant 1046-R2-5E1 (VHH)
VHH: B4 VHH with N32S, N56K, Y59V, D102Q
notes: as for B5
B11: PR004564, PR001046 VH-derived single-domain variant 1046-R2-2D4 (VHH)
VHH: B4 VHH with N32S, N56R, A60S, D102Q, R104L
notes: as for B5
B12: PR004566, PR001046 VH-derived single-domain variant 1046-R2-4G10 (VHH)
VHH: B4 VHH with N32S, N56R, A60S
notes: as for B5
B13: PR004570, PR001046 VH-derived single-domain variant 1046-R2-6D6 (VHH)
VHH: B4 VHH with N32A, N56R, D102Q
notes: as for B5
B14: PR004560, PR001046 VH-derived single-domain variant 1046-R2-10F1 (VHH)
VHH: B4 VHH with N32A, Y59V, A60S, D102Q
notes: as for B5
B15: PR004571, PR001046 VH-derived single-domain variant 1046-R2-6F1 (VHH)
VHH: B4 VHH with N32S, N56K, A60S, D102Q, R104I
notes: as for B5
B16: PR004561, PR001046 VH-derived single-domain variant 1046-R2-10H1 (VHH)
VHH: B4 VHH with N32S, D102Q, R104L
notes: as for B5
B17: PR004572, PR001046 VH-derived single-domain variant 1046-R2-7E7 (VHH)
VHH: B4 VHH with N32S, N56K, Y59V
notes: Tested as VH single domain with Flag and His tags; also called PR001046-R2-7E7; not shown: Flag and His tags
B18: PR004573, PR001046 VH-derived single-domain variant 1046-R2-8B1 (VHH)
VHH: B4 VHH with N32S, N56K
notes: as for B5
B19: PR004559, PR001046 VH-derived single-domain variant 1046-R1-12G7 (VHH)
VHH: B4 VHH with N56K
notes: Tested as VH single domain with Flag and His tags; also called PR001046-R1-12G7; not shown: Flag and His tags
B20: PR004574, PR001046 VH-derived single-domain variant 1046-R2-9E5 (VHH)
VHH: B4 VHH with N32A, N56R, A60S, D102Q
notes: as for B5

target: T4, cynomolgus monkey BCMA (cynomolgus monkey, UniProt A0A2K5UD97 1-183); assay: FACS on HEK293T/cyno BCMA cells
T4 construct: whole, on cells; also called cyno BCMA
T4 sequence (A0A2K5UD97 entry or part of it): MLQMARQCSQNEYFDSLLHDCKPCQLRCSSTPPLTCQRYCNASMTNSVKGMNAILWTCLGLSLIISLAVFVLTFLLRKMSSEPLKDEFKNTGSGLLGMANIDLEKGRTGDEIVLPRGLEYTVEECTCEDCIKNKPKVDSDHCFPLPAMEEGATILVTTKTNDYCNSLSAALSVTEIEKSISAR
Protocol: This example is intended to investigate the binding activity of anti-BCMA HCAb antibodies to human and cynomolgus monkey BCMAs. […] Specifically, HEK293T/hBCMA cells and HEK293T/cyno BCMA cells were digested and resuspended in a DMEM complete medium. In addition, NCI-H929 cell suspension was collected. The density of each of the three cells was adjusted to 1×10⁶ cells/mL. […] The cells were incubated at 4° C. for 1 h away from light. Thereafter, the cells in each well were rinsed twice with 100 μL of pre-cooled PBS, and centrifuged at 500 g at 4° C. for 5 min, and then the supernatant was discarded. […] The cells in each well were rinsed twice with 100 μL of pre-cooled PBS, and centrifuged at 500 g at 4° C. for 5 min, and then the supernatant was discarded. Finally, the cells in each well were resuspended in 200 μL of pre-cooled PBS. Fluorescence signal values were read using a BD FACS CANTOII flow cytometer or an ACEA NovoCyte flow cytometer, and the data were processed and analyzed using FlowJo v10 (FlowJo, LLC) software. The data were processed and analyzed by plotting using GraphPad Prism 8 software, and binding curves of the antibodies to target cells, EC₅₀ values and other parameters were obtained through four-parameter nonlinear fitting.

Row | Maximum MFI | Binder
1 | 13000 | B1
2 | 42000 | B2
3 | 39300 | B3

target: T1, biotinylated human BCMA-Fc, Avitag …; assay: BLI (Octet Red96e), biotinylated BCMA-Fc on SA sensor, VH supernatant, 100 nM, single concentration
Protocol: (§1) In this example, the binding kinetics between the anti-BCMA antibody and the BCMA antigenic protein were analyzed by the Biolayer Interferometry (BLI) technique using an Octet Red96e molecular interaction analyzer (ForteBio, Octet Red96e).

Row | Response | koff | Binder
4 | 0.261 | 0.000696 s⁻¹ | B4
5 | 0.73 | 0.000254 s⁻¹ | B5
6 | 0.535 | 0.000217 s⁻¹ | B6
7 | 0.493 | 0.000259 s⁻¹ | B7
8 | 0.733 | 0.00023 s⁻¹ | B8
9 | 0.557 | 0.000236 s⁻¹ | B9
10 | 0.578 | 0.000201 s⁻¹ | B10
11 | 0.57 | 0.000228 s⁻¹ | B11
12 | 0.424 | 0.000286 s⁻¹ | B12
13 | 0.437 | 0.000234 s⁻¹ | B13
14 | 0.573 | 0.000301 s⁻¹ | B14
15 | 0.704 | 0.000219 s⁻¹ | B15
16 | 0.269 | 0.0003 s⁻¹ | B16
17 | 0.29 | 0.000236 s⁻¹ | B17
18 | 0.268 | 0.000282 s⁻¹ | B18
19 | 0.261 | 0.000379 s⁻¹ | B19
20 | 0.29 | 0.000314 s⁻¹ | B20

target: T2, human BCMA; assay: FACS on NCI-H929 cells

Row | Maximum MFI | EC50 | Binder
21 | 53000 | – | B1
22 | 61300 | 2.09 nM | B2
23 | 63900 | 1.82 nM | B3

target: T1, biotinylated human BCMA-Fc, Avitag …; assay: BLI, dissociation rate relative to the original molecule PR001046 VH
Protocol: as §1

Row | Kdis fold | Binder
24 | 1 | B4
25 | 0.36 | B5
26 | 0.31 | B6
27 | 0.37 | B7
28 | 0.33 | B8
29 | 0.34 | B9
30 | 0.29 | B10
31 | 0.33 | B11
32 | 0.41 | B12
33 | 0.34 | B13
34 | 0.43 | B14
35 | 0.31 | B15
36 | 0.43 | B16
37 | 0.34 | B17
38 | 0.41 | B18
39 | 0.54 | B19
40 | 0.45 | B20

target: T3, human BCMA; assay: flow cytometry, NCI-H929 cells, Flag-tagged VH single domain, anti-tag secondary antibody
Protocol: Specifically, HEK293T/hBCMA cells and HEK293T/cyno BCMA cells were digested and resuspended in a DMEM complete medium. In addition, NCI-H929 cell suspension was collected. The density of each of the three cells was adjusted to 1×10⁶ cells/mL. […] The cells were incubated at 4° C. for 1 h away from light. Thereafter, the cells in each well were rinsed twice with 100 μL of pre-cooled PBS, and centrifuged at 500 g at 4° C. for 5 min, and then the supernatant was discarded. […] The cells in each well were rinsed twice with 100 μL of pre-cooled PBS, and centrifuged at 500 g at 4° C. for 5 min, and then the supernatant was discarded. Finally, the cells in each well were resuspended in 200 μL of pre-cooled PBS. Fluorescence signal values were read using a BD FACS CANTOII flow cytometer or an ACEA NovoCyte flow cytometer, and the data were processed and analyzed using FlowJo v10 (FlowJo, LLC) software. The data were processed and analyzed by plotting using GraphPad Prism 8 software, and binding curves of the antibodies to target cells, EC₅₀ values and other parameters were obtained through four-parameter nonlinear fitting.
It is specifically noted that the recombinant variant molecules are VH single-domain antibody molecules with a Flag tag, and a fluorescent secondary antibody against the tag is required in the FACS assay.

Row | Maximum MFI | EC50 | Binder
41 | 764 | – | B4
42 | 1420 | 5.87 nM | B5
43 | 1560 | 1.24 nM | B6
44 | 1260 | 7.96 nM | B7
45 | 1440 | 2.85 nM | B8
46 | 1430 | 2.42 nM | B9
47 | 1440 | 1.72 nM | B10
48 | 1530 | 1.34 nM | B11
49 | 1400 | 3.17 nM | B12
50 | 1360 | 2.15 nM | B13
51 | 1300 | 3.75 nM | B14
52 | 1380 | 2.86 nM | B15
53 | 1240 | 4.38 nM | B16
54 | 1500 | 0.54 nM | B17
55 | 1230 | 1.72 nM | B18
56 | 1190 | 22.4 nM | B19
57 | 1300 | 2.9 nM | B20
